± gives the uncertainty stated by the source.
Test: self-splicing fitness, log relative to wild type (ln ratio); higher = more splicing; Tetrahymena group I intron in knt gene, E. coli kanamycin selection, DiMSum; sequences stand for … in CUCUCU…GGAGGGAAAAGUUAUCAGGCAUGCACCUGGUAGCUAGUCUUUAAACCAAUAGAUUGCAUCGGUUUAAAAGGCAAGACCGUCAAAUUGCGGGAAAGGGGUCAACAGCCGUUCAGUACCAAGUCUCAGGGGAAACUUUGAGAUGGCCUUGCAAAGGGUAUGGUAAUAAGCUGACGGACAUGGUCCUAACCACGCAGCCAAGUCCUAAGUCAACAGAUCUUCUGUUGAUAUGGAUGCAGUUCACAGACUAAAUGUCGGUCGGGGAAGAUGUAUUCUUCUCAUAAGAUAUAGUCGGACCUCUCCUUAAUGGGAGCUAGCGGAUGAAGUGAUGCAACACUGGAGCCGCUGGGAACUAAUUUGUAUGCGAAAGUAUAUUGAUUAGUUUUGGAGUACUCGUGGUCG
Outline: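 Pooled colonies went to amplicon sequencing on an Illumina HiSeq 2500 after six replicate transformations. The plates were LB agar with 100 μg/mL carbenicillin, 50 μM IPTG and 0.2% rhamnose, with or without 25 μg/mL kanamycin, incubated overnight at 37°C or 30°C. The E. coli BL21(DE3) library had all eight P1ex-region intron nucleotides randomised, the intron placed in the knt kanamycin-resistance gene on pET-22b(+). DiMSum fitness is the error-weighted combination of replicate fold changes, kanamycin against none, normalised to wild type.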

Row | Sequence | self-splicing fitness (ln) (30 °C) | self-splicing fitness (ln) (37 °C)
1 | GCGGAGCAAUAUUACGGCUG | -2.93 ± 0.34 | 
2 | AUUCAGCAAUAUUACGUGAG | 0.00589 ± 0.07 | 0.325 ± 0.12
3 | CGAUAGCAAUAUUACGUUCC | -1.5 ± 0.25 | -1.51 ± 0.32
4 | CGGCAGCAAUAUUACGAGGG | -2.39 ± 0.39 | -2.15 ± 0.33
5 | UAUCAGCAAUAUUACGAUUG | -0.748 ± 0.087 | 0.588 ± 0.1
6 | AGACAGCAAUAUUACGAUCG | -0.599 ± 0.072 | 0.599 ± 0.11
7 | GAGUAGCAAUAUUACGCGCG | -0.178 ± 0.21 | -1 ± 0.2
8 | CUGGAGCAAUAUUACGUCAU | -4.18 ± 0.25 | -3.19 ± 0.4
9 | GAGUAGCAAUAUUACGCAAG | -3.43 ± 0.26 | -0.127 ± 0.1
10 | CAAAAGCAAUAUUACGGUCC | -3.68 ± 0.29 | -1.88 ± 0.21
11 | AAAGAGCAAUAUUACGCGAG | -1.87 ± 0.12 | -1.58 ± 0.13
12 | GCCUAGCAAUAUUACGUACU | -0.867 ± 0.092 | -0.282 ± 0.093
13 | CAGGAGCAAUAUUACGCAGU | -2 ± 0.31 | -1.44 ± 0.29
14 | UUAAAGCAAUAUUACGCCCU | -0.437 ± 0.11 | 0.33 ± 0.14
15 | UGGAAGCAAUAUUACGGCUA | -0.499 ± 0.14 | -0.0289 ± 0.23
16 | CUGGAGCAAUAUUACGCGUA |  | -2.81 ± 0.43
17 | CACCAGCAAUAUUACGGAGA | -1.66 ± 0.11 | -2.16 ± 0.14
18 | AACCAGCAAUAUUACGGCUG | -3.63 ± 0.14 | -3.05 ± 0.16
19 | UGGGAGCAAUAUUACGGUAA | -2.32 ± 0.45 | 
20 | GACAAGCAAUAUUACGGUAU | -1.29 ± 0.073 | -1.17 ± 0.087
21 | AAUAAGCAAUAUUACGCAAG | -1.77 ± 0.1 | -1.59 ± 0.14
22 | GCUAAGCAAUAUUACGCACA | -0.938 ± 0.098 | -0.709 ± 0.11
23 | GUGCAGCAAUAUUACGCAAG | -1.5 ± 0.1 | -0.974 ± 0.12
24 | AGUAAGCAAUAUUACGGGGG | -3.08 ± 0.22 | -2.87 ± 0.29
25 | UCAGAGCAAUAUUACGAGGG | -2.95 ± 0.16 | -1.94 ± 0.16
26 | UCGAAGCAAUAUUACGGAGC |  | -1.75 ± 0.33

Row | Sequence | self-splicing fitness (ln) (30 °C) | self-splicing fitness (ln) (37 °C)
27 | GACCAGCAAUAUUACGAGCC | -0.222 ± 0.093 | 0.0644 ± 0.14
28 | UCAAAGCAAUAUUACGGGCU | -2.34 ± 0.11 | -2.55 ± 0.14
29 | CGGUAGCAAUAUUACGCUGU | -3.2 ± 0.23 | -3.02 ± 0.37
30 | GAUUAGCAAUAUUACGUACG | -1.1 ± 0.13 | 0.136 ± 0.15
31 | UUGAAGCAAUAUUACGGCUA | -0.00358 ± 0.093 | -0.295 ± 0.096
32 | GAGUAGCAAUAUUACGUCUG | -0.699 ± 0.12 | -0.363 ± 0.15
33 | CACGAGCAAUAUUACGCGUU | -4.28 ± 0.47 | -2.1 ± 0.18
34 | ACUUAGCAAUAUUACGACGU | -0.13 ± 0.076 | 0.549 ± 0.079
35 | GGCAAGCAAUAUUACGGGUA | -1.57 ± 0.1 | -0.544 ± 0.11
36 | GUUCAGCAAUAUUACGGAUG | -0.518 ± 0.081 | 0.107 ± 0.085
37 | AGCCAGCAAUAUUACGCGCC | -2.18 ± 0.15 | -1.74 ± 0.23
38 | UCAGAGCAAUAUUACGUGCG | -2.9 ± 0.23 | -0.826 ± 0.16
39 | CCAUAGCAAUAUUACGGUGG | -3.66 ± 0.13 | -3.4 ± 0.18
40 | CCGGAGCAAUAUUACGCAAC | -1.66 ± 0.4 | -2.92 ± 0.47
41 | UAAAAGCAAUAUUACGAGCU | -2.07 ± 0.11 | -1.68 ± 0.14
42 | AUGGAGCAAUAUUACGACAA | -1.86 ± 0.22 | -2.46 ± 0.22
43 | CUGUAGCAAUAUUACGGUUG | -0.904 ± 0.081 | -0.833 ± 0.087
44 | UCCUAGCAAUAUUACGUCGU | -2.3 ± 0.13 | -0.732 ± 0.13
45 | CUAUAGCAAUAUUACGGCUG | -1.02 ± 0.12 | -0.165 ± 0.15
46 | UCCAAGCAAUAUUACGGAGU | -2.17 ± 0.12 | -1.44 ± 0.13
47 | GUAGAGCAAUAUUACGAUAU | -0.731 ± 0.088 | 0.237 ± 0.12
48 | CGCCAGCAAUAUUACGGCUG | -4.51 ± 0.36 | -1.67 ± 0.19
49 | CCCGAGCAAUAUUACGCGCU | -3.45 ± 0.25 | -2.91 ± 0.29
50 | UCGCAGCAAUAUUACGGUCU | -3.22 ± 0.2 | -1.13 ± 0.12
51 | AGUCAGCAAUAUUACGCAGC | -2.28 ± 0.15 | -1.22 ± 0.16
52 | UCAUAGCAAUAUUACGGUAA | -2.44 ± 0.27 | -0.618 ± 0.15

Row | Sequence | self-splicing fitness (ln) (30 °C) | self-splicing fitness (ln) (37 °C)
53 | CUUAAGCAAUAUUACGGGUG | -0.609 ± 0.049 | 0.489 ± 0.07
54 | CAGGAGCAAUAUUACGGGAG | -1.92 ± 0.18 | -0.745 ± 0.17
55 | UAAUAGCAAUAUUACGCGCC | -2.47 ± 0.34 | -1.39 ± 0.41
56 | CUAUAGCAAUAUUACGUUUC | -3.68 ± 0.23 | -2.86 ± 0.31
57 | AUAUAGCAAUAUUACGUAUC | -3.41 ± 0.3 | -1.92 ± 0.35
58 | CAGGAGCAAUAUUACGGGGC | -2.17 ± 0.23 | 
59 | ACGUAGCAAUAUUACGCGCU | -1.89 ± 0.11 | -0.586 ± 0.16
60 | UCGAAGCAAUAUUACGGGAU | -3.98 ± 0.31 | -3.17 ± 0.32
61 | AGAAAGCAAUAUUACGCAAC | -1.96 ± 0.25 | -2.02 ± 0.39
62 | GACCAGCAAUAUUACGAACC | -0.191 ± 0.09 | 0.0652 ± 0.092
63 | AGUCAGCAAUAUUACGCGUU | 0.159 ± 0.077 | 0.0714 ± 0.085
64 | UACGAGCAAUAUUACGUGGU | -2.86 ± 0.15 | -1.87 ± 0.23
65 | CCUAAGCAAUAUUACGAUGA | -3.09 ± 0.21 | -1.84 ± 0.18
66 | AUAAAGCAAUAUUACGAGAC | -2.89 ± 0.17 | -1.63 ± 0.19
67 | GAUUAGCAAUAUUACGCCUG | -1.56 ± 0.2 | -0.102 ± 0.19
68 | GAAUAGCAAUAUUACGGCAG | -3.67 ± 0.39 | -1.93 ± 0.25
69 | CAAUAGCAAUAUUACGAGAA | -3.83 ± 0.39 | -2.71 ± 0.3
70 | CCGUAGCAAUAUUACGUCUU | -4.01 ± 0.34 | -2.96 ± 0.23
71 | AUGUAGCAAUAUUACGAAGU | -3.07 ± 0.23 | -0.943 ± 0.18
72 | AUCAAGCAAUAUUACGAGGU | -3.52 ± 0.2 | -3.4 ± 0.33
73 | CUGUAGCAAUAUUACGCGCG | -0.982 ± 0.12 | -0.117 ± 0.14
74 | CGACAGCAAUAUUACGGACG | -2.24 ± 0.11 | -1.33 ± 0.15
75 | CAAGAGCAAUAUUACGGGCC |  | -2.71 ± 0.31
76 | ACGUAGCAAUAUUACGGUAA | -1.67 ± 0.2 | -1.39 ± 0.14
77 | UCCAAGCAAUAUUACGGACC | -2.63 ± 0.36 | -0.119 ± 0.18

Reference: the supplement of paper PMC7877785
